Results reported in patent US20090074790.

Target: recombinant GST-Smad2 fusion protein, phosphorylated in vitro by TβR-I kinase, Q15796
Sequence (Q15796 whole entry, the tested form may be a part): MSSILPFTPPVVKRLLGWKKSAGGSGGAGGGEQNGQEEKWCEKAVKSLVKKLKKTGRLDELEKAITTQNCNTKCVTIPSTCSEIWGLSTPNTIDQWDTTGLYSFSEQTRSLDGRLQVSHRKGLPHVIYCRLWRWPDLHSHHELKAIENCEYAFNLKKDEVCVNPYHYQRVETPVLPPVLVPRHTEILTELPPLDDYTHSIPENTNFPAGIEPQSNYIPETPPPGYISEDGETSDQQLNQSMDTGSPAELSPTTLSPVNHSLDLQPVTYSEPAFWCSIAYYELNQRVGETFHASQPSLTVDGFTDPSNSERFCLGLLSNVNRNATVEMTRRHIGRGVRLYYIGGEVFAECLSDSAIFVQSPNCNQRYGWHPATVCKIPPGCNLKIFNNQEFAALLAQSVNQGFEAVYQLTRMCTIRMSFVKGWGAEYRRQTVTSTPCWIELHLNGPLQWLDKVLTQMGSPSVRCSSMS

B1: purified recombinant constitutively active TβR-I kinase (protein)
chain: CHNRTVIHHRVPNEEDPSLDRPFISEGTTLKDLIYDMTTSGSGSGLPLLVQRTIARTIVLQESIGKGRFGEVWRGKWRGEEVAVKIFSSREERSWFREAEIYQTVMLRHENILGFIAADNKDNGTWTQLWLVSDYHEHGSLFDYLNRYTVTVEGMIKLALSTASGLAHLHMEIVGTQGKPAIAHRDLKSKNILVKKNGTCCIADLGLAVRHDSATDTIDIAPNHRVGTKRYMAPEVLDDSINMKHFESFKRADIYAMGLVFWEIARRCSIGGIHEDYQLPYYDLVPSDPSVEEMRKVVCEQKLRPNIPNRWQSCEALRVMAKIMRECWYANGAARLTALRIKKTLSQLSQQEGIKM
For B1, the “in vitro kinase assay, density of the pSmad2 band on Western blot” value was “a band of approximately 58 kDa, the density of which is proportional to the amount of active enzyme”.
